These results are taken from patent publication US20090010935A1.

Assay [1] deals with human epidermal growth factor receptor (EGFR), full-length wild type (human) (UniProt P00533). Briefly: cell-based or functional assay.
Assay [2] deals with ΔEGFR, extracellular-deleted mutant human EGFR (EGFRvIII) (human) (UniProt P00533). Briefly: cell-based or functional assay.

“N691 stop (cytoplasmic domain deleted rat cellular p185) (from UniProt P06494 23-690) (receptor)”: in assay [1], the EGF-induced down-regulation of cell-surface EGFR in cells co-expressing EGFR and kinase deficient Neu (flow cytometry) lay in the range of 20 to 25%.
Same read-out and setting: for “N757 (Nneu K757M, ATP-binding site mutant of rat cellular p185) (from UniProt P06494 23-1257) (receptor)” the value was 20 to 25%.
For “T691 stop neu (ectodomain-derived, carboxyl-terminal deletion mutant of the rat p185neu oncogene) (from UniProt P06494 23-654) (receptor)”, in assay [1], the inhibition of anchorage-independent growth by T691 stop neu in U87MG parental cells lacking ΔEGFR stood at 75.2%; the radiation-induced apoptosis (DAPI), U87/T691 cells, 72 h after gamma-irradiation is 20%; the radiation-induced apoptosis (DAPI), U87/T691 cells, prolonged serum deprivation combined with radiation is 33%. For the same substance, the phosphorylation content of immunoprecipitated p155 ΔEGFR monomers (mAb Δ124 immunoprecipitation, PY-20 blot, scanning densitometry) in assay [2] turned out to be 33.7%.
On to “wildtype rat cellular p185 (Nneu) (from UniProt P06494 23-1257) (receptor)”, for which, in assay [1], the co-downregulation of cellular p185 with EGFR upon EGF treatment, M1 cells (flow cytometry) was determined as 20% and the half life of WT cellular p185 after EGF treatment (pulse-chase, densitometry) was found to be 3 h.
